Patent US20240174744A1 (SCIRHOM, published 2024)

How the values were obtained:
[1] = target: T1, miR2-FL-WT-FLAG (mouse iRhom2 full length wild type C-terminally tagged with the triple-FLAG epitope) (mouse, UniProt Q80WQ6 1-827); test: FACS on MEF-DKO-miR2-FL-WT-FLAG cells
T1 construct: also called expressed by MEF-DKO-miR2-FL-WT-FLAG cells
T1 sequence: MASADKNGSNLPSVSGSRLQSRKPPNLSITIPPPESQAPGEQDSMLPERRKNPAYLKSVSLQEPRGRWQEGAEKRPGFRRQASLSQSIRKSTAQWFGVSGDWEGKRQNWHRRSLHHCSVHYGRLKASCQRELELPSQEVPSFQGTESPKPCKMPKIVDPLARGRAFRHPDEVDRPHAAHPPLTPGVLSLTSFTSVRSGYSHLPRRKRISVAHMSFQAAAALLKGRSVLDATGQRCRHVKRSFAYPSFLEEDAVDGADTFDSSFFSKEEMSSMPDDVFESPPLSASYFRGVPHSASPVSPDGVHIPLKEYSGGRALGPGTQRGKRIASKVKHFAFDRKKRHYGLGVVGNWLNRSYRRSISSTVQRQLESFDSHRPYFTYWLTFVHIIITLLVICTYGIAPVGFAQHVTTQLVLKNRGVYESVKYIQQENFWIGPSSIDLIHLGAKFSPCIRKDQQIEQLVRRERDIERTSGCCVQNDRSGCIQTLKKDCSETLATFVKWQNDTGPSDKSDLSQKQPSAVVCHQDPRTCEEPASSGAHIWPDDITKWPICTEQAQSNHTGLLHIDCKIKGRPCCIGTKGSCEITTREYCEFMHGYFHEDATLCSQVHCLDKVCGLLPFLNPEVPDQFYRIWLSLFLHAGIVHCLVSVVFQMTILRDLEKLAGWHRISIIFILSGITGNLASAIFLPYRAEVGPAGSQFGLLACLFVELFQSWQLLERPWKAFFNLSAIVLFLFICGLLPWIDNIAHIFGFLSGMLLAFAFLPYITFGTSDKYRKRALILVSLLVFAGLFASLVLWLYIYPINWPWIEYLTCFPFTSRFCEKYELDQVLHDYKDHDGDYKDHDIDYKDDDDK

[2] = target: T2, hiR2-FL-I566E-T7 (human iRhom2 full length I566E, 3 x T7 tag) (human, UniProt Q6PJF5 1-856); test: FACS on MEF-DKO-hiR2-FL-I566E-T7 cells
T2 sequence: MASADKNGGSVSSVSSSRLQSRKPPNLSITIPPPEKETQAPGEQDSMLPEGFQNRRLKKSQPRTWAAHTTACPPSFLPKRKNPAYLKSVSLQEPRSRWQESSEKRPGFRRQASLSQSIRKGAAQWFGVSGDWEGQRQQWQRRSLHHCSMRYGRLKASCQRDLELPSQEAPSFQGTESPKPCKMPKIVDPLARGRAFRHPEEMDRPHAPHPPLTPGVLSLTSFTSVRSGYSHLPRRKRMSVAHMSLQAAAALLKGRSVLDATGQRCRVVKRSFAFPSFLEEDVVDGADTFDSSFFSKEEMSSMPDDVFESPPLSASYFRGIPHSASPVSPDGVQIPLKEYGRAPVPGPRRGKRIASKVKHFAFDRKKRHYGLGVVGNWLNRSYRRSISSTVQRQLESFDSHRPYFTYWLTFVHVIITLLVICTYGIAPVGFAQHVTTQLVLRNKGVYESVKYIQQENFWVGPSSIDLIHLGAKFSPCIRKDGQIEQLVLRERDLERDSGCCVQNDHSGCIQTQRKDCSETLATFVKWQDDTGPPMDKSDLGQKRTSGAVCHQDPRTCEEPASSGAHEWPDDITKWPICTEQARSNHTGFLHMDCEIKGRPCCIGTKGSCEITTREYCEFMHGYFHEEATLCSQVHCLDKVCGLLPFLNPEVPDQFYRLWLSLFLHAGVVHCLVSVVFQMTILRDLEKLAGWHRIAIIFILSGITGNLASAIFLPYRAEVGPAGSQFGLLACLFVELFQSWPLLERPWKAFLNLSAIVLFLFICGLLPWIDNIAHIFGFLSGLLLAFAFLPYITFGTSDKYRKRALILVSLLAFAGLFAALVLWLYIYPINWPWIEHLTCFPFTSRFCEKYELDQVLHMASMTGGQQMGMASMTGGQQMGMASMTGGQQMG

B1: antibody 3 (antibody, V domains shown)
VH: QVTLKESGPGILQPSQTLSLTCSFSGFSLTTFAMGIGWVRQPSGKGLEWLAHIWWDGEKYNNPVLKSRLTISKDTSKNQVFLRIANVDTPDTATYYCARISSIYYIIDNWGQGTSVTVSS
VL: DIVLTQSPATLSVTPGHSVSLSCRASQSISNNLHWYQKKSHESPRLLIKYVSQSISGIPSRFSGSGSGTDFTLSINSVETEDFGMYFCQQSYNWPLTFGAGTKLELK
notes: Mouse IgG, kappa light chain; also called clone #3; purified antibody 3
Does B1 bind [1]?
Result: no binding (tested: 3 µg/ml)

B2: antibody 5 (antibody, V domains shown)
VH: QVTLKESGPGILQPSQTLSLTCSFSGFSLSTFGMGVGWIRQPSGKGLEWLAHIWWDDEKYYNSALKSRLTISKATSKNQAFLKIANVDTADTATYYCARISNYGSNYWYFNVWGTGTTVTVSS
VL: QVVLTQSPALMSASPGEKVTMTCSAGSSVSCMYWYQQKPGSSPRVLIYDTSNLASGVPARFTGSGSGTSYSLTISRMEAEDAASYYCQQWNSYPLTFGAGTKLELK
notes: Mouse IgG, kappa light chain; also called clone #5; purified antibody 5
Does B2 bind [2]?
Result: no binding (tested: 3 µg/ml)
